Results as given in patent publication US20040091995A1.

Biological target: human carcinoembryonic antigen (CEA) on MC-38-CEA-2 cells (human) (UniProt P06731)
Assay: FACS analysis of MC-38-CEA-2 tumor cells

Chain of UniProt P06731 (P06731 35-702): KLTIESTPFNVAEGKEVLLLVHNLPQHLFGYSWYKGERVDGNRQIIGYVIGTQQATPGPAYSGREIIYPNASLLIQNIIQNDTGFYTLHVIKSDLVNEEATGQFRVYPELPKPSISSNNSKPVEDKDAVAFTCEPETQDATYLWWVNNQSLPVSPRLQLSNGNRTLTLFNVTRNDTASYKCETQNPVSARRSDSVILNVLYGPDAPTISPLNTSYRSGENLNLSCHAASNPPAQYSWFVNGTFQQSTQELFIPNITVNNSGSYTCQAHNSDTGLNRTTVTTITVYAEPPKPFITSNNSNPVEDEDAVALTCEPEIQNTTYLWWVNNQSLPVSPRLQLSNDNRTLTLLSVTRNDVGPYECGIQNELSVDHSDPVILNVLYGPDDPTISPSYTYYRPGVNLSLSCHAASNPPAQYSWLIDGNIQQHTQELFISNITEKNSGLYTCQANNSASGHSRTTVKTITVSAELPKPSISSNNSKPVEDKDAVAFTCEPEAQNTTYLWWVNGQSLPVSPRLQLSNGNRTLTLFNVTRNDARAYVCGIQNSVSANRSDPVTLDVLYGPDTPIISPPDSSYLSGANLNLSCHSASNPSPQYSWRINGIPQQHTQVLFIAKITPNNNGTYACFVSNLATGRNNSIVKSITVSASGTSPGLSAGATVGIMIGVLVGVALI

murine IgG2a anti-CEA MAb, COL-1 (antibody)
percent of cells positive (COL-1 binding) (% of the cells): > 85
